According to patent US20180088111A1 (published 2018):

What was measured:
[1] = target: hPD1(25-167)-Myc-TVMV-His (human) (UniProt Q15116); experiment: SPR (Biacore T200), hPD1(25-167)-His on chip, MIH4 analyte, no PDL-1
[2] = target: hPD1(25-167)-3S-IG (human) (UniProt Q15116); experiment: SPR (Biacore T200), hPD1(25-167)-3S-IG on chip, MIH4 analyte, no PDL-1
[3] = target: hPD1(25-167)-Myc-TVMV-His (human) (UniProt Q15116); experiment: SPR (Biacore T200), hPD1(25-167)-His coupled to CM5 chip, MIH4 0.195-50 nM as analyte
[4] = target: hPD1(25-167)-Myc-TVMV-His (human) (UniProt Q15116); experiment: SPR (Biacore T200), hPD1(25-167)-His on chip, MIH4 analyte, in the presence of PDL-1 ('2M' [sic])
[5] = target: T1, recombinant human PDL-1 (human, UniProt Q9NZQ7 19-239); experiment: SPR (ProteOn XPR36), hPD1(25-167)-His captured by His-tag on HTG chip, hPDL-1 0.125-2 µM as analyte, equilibrium analysis
T1 construct: Bought (R&D Systems); whole entry named; also called hPDL-1; soluble human PDL-1
T1 sequence (Q9NZQ7 19-239 limits assumed): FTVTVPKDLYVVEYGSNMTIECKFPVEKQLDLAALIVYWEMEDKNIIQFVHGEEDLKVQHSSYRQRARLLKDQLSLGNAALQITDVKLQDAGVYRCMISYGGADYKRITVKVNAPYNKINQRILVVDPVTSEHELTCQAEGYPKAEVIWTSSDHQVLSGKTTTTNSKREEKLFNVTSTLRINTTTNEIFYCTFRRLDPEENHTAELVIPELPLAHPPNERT
Procedure: The surface was activated by injecting nickel (II) ions at 30 μl/min for 120 s. All analyses were performed at 25° C. in a PBS-0.05% TWEEN® solution.
The surface was regenerated with 300 mM EDTA (pH 8.5) following BioRad's recommendations. The binding data were analyzed using the PROTEON MANAGER™ Software from Bio-Rad.
Soluble, human PDL-1 was injected into the mobile phase as an analyte.

A Kd [1] of 2.8 nM, a koff [1] of 0.00038 s⁻¹ and a kon [1] of 130000 M⁻¹ s⁻¹ were found for MIH4 (antibody) in this work. The Kd [2] was 0.5 nM, the koff [2] was 0.00024 s⁻¹ and the kon [2] was 480000 M⁻¹ s⁻¹. For the same molecule, the response level (RU) [3] was 0.2 to 49 RU, the Kd [4] was 2.9 nM and the koff [4] was 0.00034 s⁻¹. It also gave a kon [4] of 120000 M⁻¹ s⁻¹.

B1: hPD1(25-167)-Myc-TVMV-His (receptor)
chain: LDSPDRPWNPPTFSPALLVVTEGDNATFTCSFSNTSESFVLNWYRMSPSNQTDKLAAFPEDRSQPGQDCRFRVTQLPNGRDFHMSVVRARRNDSGTYLCGAISLAPKAQIKESLRAELRVTERRAEVPTAHPSPSPRPAGQFQEQKLISEEDLGSSETVRFQGHHHHHH
modifications: glycosylated (HEK293 expression)
notes: range 25-167; Expressed in HEK293-6E cells; glycosylated monomer in solution by SEC-MALS; also called hPD1(25-167)-His; hPD-1(25-167)-His
A Kd [5] of 2800 nM was found for B1 in this work.
